For this series, the target named is MdNAC5A (Malus x domestica (Fuji / Cripp's Pink), UniProt A0A498K6T8 1-364). Put plainly: EMSA; EMSA/Gel-Shift Kit (Beyotime) per instructions; buffer, salt, pH and temperature not stated. The note with it: protein: recombinant; tags: His (pET-32a); chain copies: 2; label: 3' biotin (both strands); blunt.
Sequence of MdNAC5A (A0A498K6T8 entry or part of it): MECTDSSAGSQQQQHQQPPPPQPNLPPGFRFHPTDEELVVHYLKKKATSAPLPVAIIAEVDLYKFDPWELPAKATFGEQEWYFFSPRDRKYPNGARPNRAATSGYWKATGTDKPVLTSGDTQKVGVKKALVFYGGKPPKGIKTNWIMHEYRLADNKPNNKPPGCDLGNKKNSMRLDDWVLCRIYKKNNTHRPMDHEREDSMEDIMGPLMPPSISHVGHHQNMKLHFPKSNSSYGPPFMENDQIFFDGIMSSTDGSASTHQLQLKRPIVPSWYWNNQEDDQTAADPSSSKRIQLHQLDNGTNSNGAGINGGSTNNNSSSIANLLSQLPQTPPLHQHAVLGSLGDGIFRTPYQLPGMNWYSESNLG

B1: MdACS1 probe (dsDNA)
DNA 1: CCTGTGACAATATTACATGTGGCATGTCAATTGAGA
DNA 2: TCTCAATTGACATGCCACATGTAATATTGTCACAGG
Consider B1, for which the binding result is reported as “binds”.
